Changes are numbered by the printed parent chain.
How the values were obtained:
[1] = target: T1, Coagulation Factor V (FV), modified (Homo sapiens, UniProt P12259 P12259:29-2224); assay: filter; lead clone chosen by aPTT activity and binding to FV and FVa; no value given; details: tags: modified FV, protease-stabilised form described previously; label: 5'-32P
[2] = target: T2, Coagulation Factor Va (FVa), modified (Homo sapiens, UniProt P12259;P12259 P12259:29-737,P12259:1574-2224); assay: as above; details: tags: modified FVa, protease-stabilised form described previously; label: 5'-32P
T2 chain 1: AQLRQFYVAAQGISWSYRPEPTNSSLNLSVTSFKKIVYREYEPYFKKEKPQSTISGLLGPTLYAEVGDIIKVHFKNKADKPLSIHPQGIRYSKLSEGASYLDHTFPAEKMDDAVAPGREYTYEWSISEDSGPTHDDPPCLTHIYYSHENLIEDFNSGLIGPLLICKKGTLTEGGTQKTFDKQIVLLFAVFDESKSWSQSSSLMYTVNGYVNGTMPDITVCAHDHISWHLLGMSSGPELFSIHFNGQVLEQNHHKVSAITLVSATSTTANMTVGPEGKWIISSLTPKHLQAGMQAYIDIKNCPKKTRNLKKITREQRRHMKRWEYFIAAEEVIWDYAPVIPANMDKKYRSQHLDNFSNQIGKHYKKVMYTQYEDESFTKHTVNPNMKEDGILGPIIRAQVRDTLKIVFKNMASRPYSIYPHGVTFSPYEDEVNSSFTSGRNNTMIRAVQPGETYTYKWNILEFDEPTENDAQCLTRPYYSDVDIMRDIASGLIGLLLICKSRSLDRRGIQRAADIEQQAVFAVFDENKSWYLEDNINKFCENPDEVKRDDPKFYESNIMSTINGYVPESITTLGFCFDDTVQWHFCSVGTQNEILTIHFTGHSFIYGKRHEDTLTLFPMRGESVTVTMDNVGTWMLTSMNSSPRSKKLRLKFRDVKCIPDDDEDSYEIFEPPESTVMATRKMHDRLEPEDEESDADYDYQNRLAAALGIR
T2 chain 2: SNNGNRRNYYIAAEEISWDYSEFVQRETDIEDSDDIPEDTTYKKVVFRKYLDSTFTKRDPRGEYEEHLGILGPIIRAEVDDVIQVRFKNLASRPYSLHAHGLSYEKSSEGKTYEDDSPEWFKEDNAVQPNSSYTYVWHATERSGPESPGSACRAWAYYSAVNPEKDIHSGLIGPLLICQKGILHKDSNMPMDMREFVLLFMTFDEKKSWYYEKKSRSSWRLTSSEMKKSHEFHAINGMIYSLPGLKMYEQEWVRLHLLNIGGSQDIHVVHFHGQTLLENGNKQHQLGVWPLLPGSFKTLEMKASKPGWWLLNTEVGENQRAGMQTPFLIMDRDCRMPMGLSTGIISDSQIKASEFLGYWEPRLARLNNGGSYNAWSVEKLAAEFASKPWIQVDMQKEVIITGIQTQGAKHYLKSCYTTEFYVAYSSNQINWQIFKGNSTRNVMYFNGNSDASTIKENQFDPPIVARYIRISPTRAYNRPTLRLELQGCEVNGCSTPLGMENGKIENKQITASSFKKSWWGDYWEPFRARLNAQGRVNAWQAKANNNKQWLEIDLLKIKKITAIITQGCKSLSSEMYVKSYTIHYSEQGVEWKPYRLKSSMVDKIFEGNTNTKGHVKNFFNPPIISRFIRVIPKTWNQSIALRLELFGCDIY

[3] = target: T1, Coagulation Factor V (FV), modified; assay: FP_none filter; details: tags: modified FV, protease-stabilised form described previously; label: 5'-32P
Experimental: (§1) Apparent binding affinity of the aptamers to a purified protein was determined using double filter nitrocellulose binding assays. Binding of the radiolabeled pooled RNA, 11HMT, and 11Mut2 to modified FV and FVa was assessed by incubating trace amounts of radiolabeled RNA with serial dilutions of the purified target protein. For SELEX round binding, pooled RNAs were incubated with modified FV or FVa diluted two fold from 0 nM to 750-800 nM for both proteins. For 11HMT, the radiolabeled RNAs were incubated with both proteins from 0 nM to 500 nM. The radiolabeled RNAs were denatured and re-folded in Hepes-buffered saline (HBS) with CaCl2 (20 mM Hepes pH 7.4, 150 mM NaCl, 2 mM CaCl2), 0.01% bovine serum albumin (BSA), and 0.1% w/v polyethylene glycol 8000 (PEG 8000) by incubating at 95° C. for 3 minutes followed by cooling to room temperature for 3 minutes. The radiolabeled RNA alone was incubated at 37° C. for 5 minutes, followed by incubation with the protein in HBS with CaCl2, 0.01% BSA, and 0.1% w/v PEG 8000 at 37° C. for 5 minutes. […] Bound and unbound RNA was quantitated using a Storm 825 phosphoimager (GE Healthcare, Little Chalfont, Buckinghamshire, UK) and quantified via densitometry.

[4] = target: T2, Coagulation Factor Va (FVa), modified; assay: filter; HBS 2 mM CaCl2, 0.01% BSA, 0.1% PEG 8000, 37 C; low Bmax; details: tags: modified FVa, protease-stabilised form described previously; label: 5'-32P
Experimental: as §1

[5] = target: T1, Coagulation Factor V (FV), modified; assay: filter; no binding above starting library; details: tags: modified FV, protease-stabilised form described previously; label: 5'-32P
Experimental: as §1

[6] = target: T2, Coagulation Factor Va (FVa), modified; assay: filter; no binding above starting library; details: tags: modified FVa, protease-stabilised form described previously; label: 5'-32P
Experimental: as §1

[7] = target: T2, Coagulation Factor Va (FVa), modified; assay: filter; lead clone; also at 2.0 uM inhibits FVa-phospholipid docking by light scattering (p125); details: tags: modified FVa, protease-stabilised form described previously; label: 5'-32P
[8] = target: Factor V light chain (UniProt P12259 P12259:1574-2224); assay: SPR; three runs: 1.926, 1.504, 7.997; text ~5 nM; HBS 2 mM CaCl2, 25 C; details: label: 5'-biotin
Experimental: (§2) The T18.3 binding constants were determined using surface plasmon resonance (SPR) with a BiaCore3000 (GE Healthcare). This method was used to determine apparent KDs for T18.3 to modified FV, modified FVa, the FV heavy chain, and the FV light chain. The T18.3 aptamer was synthesized (Biosynthesis, Lewisville, Tex.) and included a biotin and PEG 11 spacer on the 5′ end to allow for immobilization of the aptamer on a biotin CAPture chip kit (GE Healthcare). Prior to chip coating, the biotinylated T18.3 was refolded using the same protocol as the in vitro transcribed T18.3 by heating to 95° C. for 3 minutes followed by 3 minutes at room temperature. Aptamer conjugation onto the chip was achieved by flowing aptamer solution over the chip at a rate of 2 μL/min for 5 minutes. For binding to the modified FV, FVa, and purified FV heavy chain, 5.0 ng of aptamer was coated onto the chip. For the purified FV light chain experiments 15.3 ng of aptamer was coated onto the chip. Binding experiments using SPR was performed at 25° C. in HBS with CaCl2, without the addition of BSA or PEG 8000. […] Increasing concentrations of protein were flowed over the T18.3-coated chip and apparent KD was determined by calculating the differences in response units (RU) from buffer for each protein concentration immediately before the end of each protein injection and plotted as ΔRU versus protein concentration. […]

[9] = target: T1, Coagulation Factor V (FV), modified; assay: SPR; three runs: 16.55, 10.00, 8.213; text ~10 nM; HBS 2 mM CaCl2, 25 C; details: tags: modified FV, protease-stabilised form described previously; label: 5'-biotin
Experimental: as §2

[10] = target: T2, Coagulation Factor Va (FVa), modified; assay: SPR; three runs: 6.222, 5.408, 5.115; text ~6 nM; HBS 2 mM CaCl2, 25 C; details: tags: modified FVa, protease-stabilised form described previously; label: 5'-biotin
Experimental: as §2

[11] = target: Factor Xa (Homo sapiens, UniProt P00742;P00742 P00742:41-179,P00742:235-488); assay: filter; no binding up to 1000 nM FXa; details: label: 5'-32P
[12] = target: T1, Coagulation Factor V (FV), modified; assay: filter; no binding above starting library; details: tags: modified FV, protease-stabilised form described previously; label: 5'-32P; remark: listed apart in the source

Sequence of Factor Xa (P00742 41-179, chain 1 of 2): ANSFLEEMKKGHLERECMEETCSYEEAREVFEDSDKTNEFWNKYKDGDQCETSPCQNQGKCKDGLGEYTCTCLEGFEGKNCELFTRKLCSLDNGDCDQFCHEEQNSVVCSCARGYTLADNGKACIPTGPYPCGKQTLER
Sequence of Factor Xa (P00742 235-488, chain 2 of 2): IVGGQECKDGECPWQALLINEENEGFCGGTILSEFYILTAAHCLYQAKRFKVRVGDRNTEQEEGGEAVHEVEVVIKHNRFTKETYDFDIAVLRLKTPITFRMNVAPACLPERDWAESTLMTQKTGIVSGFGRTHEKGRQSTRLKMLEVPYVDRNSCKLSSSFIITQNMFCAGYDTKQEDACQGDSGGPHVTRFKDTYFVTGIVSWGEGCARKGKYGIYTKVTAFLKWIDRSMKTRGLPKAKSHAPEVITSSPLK

B1: FVa R9c11 (ssRNA)
RNA: GGGAGGACGAUGCGGUCACGCCCCUCAGGAUCCAACGCACAAUUACGUGCCUUGUCAGACGACUCGCUGAGGAUCCGAGA
modifications: 2'-F C and U
B1: binds [1]; binds [2].

With GGAUCCAACGCACAAUUACGUGCCUUGUCAGACGACUCGCUGAGGAUCC (ssRNA, 2'-F C and U) [11HMT] the Kd [3] was 23.2 nM and the Kd [4] was 0.822 nM.

GGAUCCAACGCACAAUUACGUGCCGGUUCAGACGACUCGCUGAGGAUCC (ssRNA, 2'-F C and U) [11Mut2]: no binding [5]; no binding [6].

B2: FV R8c7 (ssRNA)
RNA: GGGAGGACGAUGCGGUCGCCCAAACUUGGAUAACCUCACCGCAAUGGCGGCUUGUCAGACGACUCGCUGAGGAUCCGAGA
modifications: 2'-F C and U
B2: binds [7]; binds [1].

B3: T18.3 biotinylated (ssRNA)
RNA: GGACUUGGAUAACCUCACCGCAAUGGCGGCUUGUCAGACGACUCGCUGAGGAUCCGAG
modifications: 2'-F C and U; 5' biotin and PEG11 spacer
B3 gave a Kd [8] of 3.47 nM, a Kd [9] of 11.7 nM and a Kd [10] of 5.64 nM.

B4: T18.3 (ssRNA)
RNA: B3 RNA
modifications: 2'-F C and U
B4: no binding [11].

B5: 18.3Mut1 (ssRNA)
RNA: B3 RNA with C30A, U31G, U32G
modifications: 2'-F C and U
B5: no binding [11]; no binding [12].
